The text below walks through data of CN109734803A (ZONHON BIOPHARMA INST INC, dated 2019).

Assay [1] deals with T1, 重组人MYO(大肠杆菌重组表达，本公司制备) (human, UniProt P02144 2-154).
T1 construct: The background describes myoglobin as one chain of 153 residues with a haem group; also called 重组MYO; 人肌红蛋白
T1 sequence (looked up): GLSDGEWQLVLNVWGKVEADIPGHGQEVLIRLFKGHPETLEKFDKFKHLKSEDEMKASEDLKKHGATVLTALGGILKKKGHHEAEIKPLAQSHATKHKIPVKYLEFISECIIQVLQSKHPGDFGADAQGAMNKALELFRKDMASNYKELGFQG
Put plainly: Western blot, recombinant MYO on nitrocellulose, HRP-labelled M08 at 1:1000.

In assay [2] the target is T1, 重组人MYO(大肠杆菌重组表达，本公司制备). Put plainly: indirect ELISA, recombinant human MYO coated at 1 μg/mL, hybridoma supernatant, HRP goat anti-mouse IgG.
Assay [3] concerns the target T1, 重组人MYO(大肠杆菌重组表达，本公司制备). Put plainly: Western blot, recombinant MYO on nitrocellulose, HRP-labelled M26 at 1:1000.

B1: 单链抗体M08 (scFv)
scFv: QVQLQQSGAELAKPGASVKMSCKASGYTFTSYWMHWVKQRPGQGLEWIGYIKPNTDYTEYNQKFKDKATLTADKSSSTAYMQLSSLTSEDSAVYYCTRIRGYALDYWGQGTSVTVSSGGGGSGGGGSGGGGSDIVMTQSPSSLTVTAGEKVTMICKSSQSLLNSGNQKNYLTWYQQKPGQPPKLLIYWASTRESGVPDRFTGSGSGTDFTLTISSVQAEDLAVYYCQNDYNFPLTFGAGTKLELK
notes: VH and VL of M08 joined by a (GGGGS)3 linker, expressed in E. coli and purified on HisTrap; HRP-labelled in the Western blot; coupled to time-resolved fluorescent microspheres in the test card; also called M08-scFv; M08-HRP; not shown: Histidine tag introduced downstream of the gene
For the molecule B1, the binding result with 重组人MYO(大肠杆菌重组表达，本公司制备) [1] is given as “binds”.

B2: 杂交瘤细胞株M08的抗人MYO抗体 (antibody, V domains shown)
VH: QVQLQQSGAELAKPGASVKMSCKASGYTFTSYWMHWVKQRPGQGLEWIGYIKPNTDYTEYNQKFKDKATLTADKSSSTAYMQLSSLTSEDSAVYYCTRIRGYALDYWGQGTSVTVSS
VL: DIVMTQSPSSLTVTAGEKVTMICKSSQSLLNSGNQKNYLTWYQQKPGQPPKLLIYWASTRESGVPDRFTGSGSGTDFTLTISSVQAEDLAVYYCQNDYNFPLTFGAGTKLELK
notes: Mouse hybridoma culture supernatant, detected with HRP goat anti-mouse IgG; also called 抗人肌红蛋白抗体(M08)
In the case of B2, the binding result with 重组人MYO(大肠杆菌重组表达，本公司制备) [2] is “binds”.

B3: 杂交瘤细胞株M26的抗人MYO抗体 (antibody, V domains shown)
VH: QVQLQQSGDDLVKPGASVKLSCKASGYTFTSYWINWIKQRPGQGLEWIGRIAPEGDSTYYNEMFKGKATLTVDTSSSTAYIQLSSLSSEDSAVYFCAREVRNAMDYWGQGTSVTVSS
VL: DIQMNQSPSSLSASLGDTITITCHASQNIHVWLSWYLQKPGNITKLLIYEASNLHTGVPSRFSGSGSGTGFTLTISSLQPEDIATYYCQQGQRYPLTFGGGTKLEIK
notes: Mouse hybridoma culture supernatant, detected with HRP goat anti-mouse IgG; also called 抗人肌红蛋白抗体(M26)
On to B3, for which the binding result with 重组人MYO(大肠杆菌重组表达，本公司制备) [2] is “binds”.

B4: 单链抗体M26 (scFv)
scFv: QVQLQQSGDDLVKPGASVKLSCKASGYTFTSYWINWIKQRPGQGLEWIGRIAPEGDSTYYNEMFKGKATLTVDTSSSTAYIQLSSLSSEDSAVYFCAREVRNAMDYWGQGTSVTVSSGGGGSGGGGSGGGGSDIQMNQSPSSLSASLGDTITITCHASQNIHVWLSWYLQKPGNITKLLIYEASNLHTGVPSRFSGSGSGTGFTLTISSLQPEDIATYYCQQGQRYPLTFGGGTKLEIK
notes: VH and VL of M26 joined by a (GGGGS)3 linker, expressed in E. coli and purified on HisTrap; HRP-labelled in the Western blot; coated on the T line of the nitrocellulose membrane in the test card; also called M26-scFv; M26-HRP; not shown: Histidine tag introduced downstream of the gene
For the molecule B4, the binding result with 重组人MYO(大肠杆菌重组表达，本公司制备) [3] was “binds”.
